In this experiment the target is P74-26 gp87 (Head Decoration Protein gp87 from Thermus phage P74-26) (Thermus bacteriophage P74-26). As to the kind of experiment: SEC-MALS. (Size exclusion chromatography separates by hydrodynamic size, large species first.)

Stoichiometry N data for one substance are collected here from article PMC6277972.

For “P74-26 gp87 (Head Decoration Protein gp87 from Thermus phage P74-26) (natural protein)”, the stoichiometry N (usually the number of molecules, sites or subunits per partner or assembly) turned out to be 3.
